Results taken from patent US20260209386A1 (MYTHIC THERAPEUTICS, published 2026).

Target: T1, Human PTK7/CCK4 Protein, His Tag, Acro Biosystems PT7-H52H3 (human, UniProt Q13308 31-704)
T1 construct: bought protein; also called Human PTK7 Protein, His Tag, Acro Biosystems; not shown: His tag
T1 sequence: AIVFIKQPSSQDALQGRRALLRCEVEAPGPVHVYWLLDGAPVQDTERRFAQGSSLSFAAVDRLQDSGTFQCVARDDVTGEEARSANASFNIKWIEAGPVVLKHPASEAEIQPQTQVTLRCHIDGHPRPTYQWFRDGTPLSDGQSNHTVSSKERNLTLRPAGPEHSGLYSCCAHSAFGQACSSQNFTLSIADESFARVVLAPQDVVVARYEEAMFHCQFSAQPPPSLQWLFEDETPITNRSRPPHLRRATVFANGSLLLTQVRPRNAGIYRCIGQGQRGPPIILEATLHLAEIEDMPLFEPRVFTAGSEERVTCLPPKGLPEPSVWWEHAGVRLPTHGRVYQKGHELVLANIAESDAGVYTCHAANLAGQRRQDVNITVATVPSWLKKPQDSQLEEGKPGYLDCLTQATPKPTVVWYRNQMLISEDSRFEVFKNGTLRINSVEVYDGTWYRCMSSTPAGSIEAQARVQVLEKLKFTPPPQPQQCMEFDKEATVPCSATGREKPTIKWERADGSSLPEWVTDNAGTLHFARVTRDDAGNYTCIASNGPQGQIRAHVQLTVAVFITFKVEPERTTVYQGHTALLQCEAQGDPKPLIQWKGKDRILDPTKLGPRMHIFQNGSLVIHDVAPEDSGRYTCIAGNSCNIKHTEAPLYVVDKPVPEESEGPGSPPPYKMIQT
Test: BLI, antibody on anti-human Fc sensor, 50 nM PTK7

B1: MYT11180 (antibody, V domains shown)
VH: EVQLVESGGGLVQPGGSLRLSCTASHIDLSSYVMGWVRQAPGKGLEWVGYIYGGGGTYYATWARGRFTISRDTSKNTVYLQMNSLRAEDTAVYFCARAAADFYFNLWGQGTLVTVSS
VL: EIVMTQSPSTLSASVGDRVIITCQASQSISSYLAWYQQKPGKAPKLLIYDISDLASGVPSRFSGSGSGAEFTLTISSLQPDDFATYYCQSYYWISNSGAAFGQGTKLTVL
notes: IgG
  binding result: binds

B2: MYT11182 (antibody, V domains shown)
VH: EVQLVESGGGLVQPGGSLRLSCTASGIHLSSYVMGWVRQAPGKGLEWVGYIYGGGGTYYATWARGRFTISRDTSKNTVYLQMNSLRAEDTAVYFCARAAADFYFNLWGQGTLVTVSS
VL: EIVMTQSPSTLSASVGDRVIITCQASQSISSYLAWYQQKPGKAPKLLIYDISDLASGVPSRFSGSGSGAEFTLTISSLQPDDFATYYCQSYYWISNSGAAFGQGTKLTVL
notes: IgG
  binding result: binds

B3: MYT11184 (antibody, V domains shown)
VH: EVQLVESGGGLVQPGGSLRLSCTASGIDLHSYVMGWVRQAPGKGLEWVGYIYGGGGTYYATWARGRFTISRDTSKNTVYLQMNSLRAEDTAVYFCARAAADFYFNLWGQGTLVTVSS
VL: EIVMTQSPSTLSASVGDRVIITCQASQSISSYLAWYQQKPGKAPKLLIYDISDLASGVPSRFSGSGSGAEFTLTISSLQPDDFATYYCQSYYWISNSGAAFGQGTKLTVL
notes: IgG
  binding result: binds

B4: MYT11194 (antibody, V domains shown)
VH: EVQLVESGGGLVQPGGSLRLSCTASGIDLSSYVMGWVRQAPGKGLEWVGYIYGHGGTYYATWARGRFTISRDTSKNTVYLQMNSLRAEDTAVYFCARAAADFYFNLWGQGTLVTVSS
VL: EIVMTQSPSTLSASVGDRVIITCQASQSISSYLAWYQQKPGKAPKLLIYDISDLASGVPSRFSGSGSGAEFTLTISSLQPDDFATYYCQSYYWISNSGAAFGQGTKLTVL
notes: IgG
  binding result: binds

B5: MYT11193 (antibody, V domains shown)
VH: EVQLVESGGGLVQPGGSLRLSCTASGIDLSSYVMGWVRQAPGKGLEWVGYIYHGGGTYYATWARGRFTISRDTSKNTVYLQMNSLRAEDTAVYFCARAAADFYFNLWGQGTLVTVSS
VL: EIVMTQSPSTLSASVGDRVIITCQASQSISSYLAWYQQKPGKAPKLLIYDISDLASGVPSRFSGSGSGAEFTLTISSLQPDDFATYYCQSYYWISNSGAAFGQGTKLTVL
notes: IgG
  binding result: binds

B6: MYT11192 (antibody, V domains shown)
VH: EVQLVESGGGLVQPGGSLRLSCTASGIDLSSYVMGWVRQAPGKGLEWVGYIHGGGGTYYATWARGRFTISRDTSKNTVYLQMNSLRAEDTAVYFCARAAADFYFNLWGQGTLVTVSS
VL: EIVMTQSPSTLSASVGDRVIITCQASQSISSYLAWYQQKPGKAPKLLIYDISDLASGVPSRFSGSGSGAEFTLTISSLQPDDFATYYCQSYYWISNSGAAFGQGTKLTVL
notes: IgG
  binding result: binds

B7: MYT11166 (antibody, V domains shown)
VH: EVQLVESGGGLVQPGGSLRLSCTASGFSLSTYAMSWVRQAPGKGLEWVGMIYINDNTYYASWAKGRFTISRDTSKNTVYLQMNSLRAEDTAVYFCARDIGISYYIGVSLWGQGTLVTVSS
VL: EIVMTQSPSTLSASVGDRVIITCQASQSIGTRLSWYQQKPGKAPKLLIYGASKLATGVPSRFSGSGSGAEFTLTISSLQPDDFATYYCLGEHSYTTTDGIAFGQGTKLTVL
notes: IgG
  binding result: binds

B8: MYT11172 (antibody, V domains shown)
VH: EVQLVESGGGLVQPGGSLRLSCTASGFSLSTYAMSWVRQAPGKGLEWVGMIYINDNTYYASWAKGRFTISRDTSKNTVYLQMNSLRAEDTAVYFCARDIGISYYIGVSLWGQGTLVTVSS
VL: EIVMTQSPSTLSASVGDRVIITCQASQSIGTRLSWYQQKPGKAPKLLIYGASKLATGVPSRFSGSGSGAEFTLTISSLQPDDFATYYCLGEYSYTTTHGIAFGQGTKLTVL
notes: IgG
  binding result: binds
